Reference: IntAct's records for PubMed 24794838

B1: PIH1 domain-containing protein 1 (Mus musculus), Q9CQJ2 (parent)
chain: MADSTFLAPELSDTESMGEETVRFQELLLKASKELQQAQTARPDSTQIQPKPGFCVKTNSSEGKVFINICHSPSIPPPADVTEDELLQMLEEDQAGFRIPMSLGEPHAELDAKGQGCTAYDVAVNSNFYLRMQNSDFLRELVVTIAREGLEDKYGLQLNPEWRMLKYRSFLGSISQQNIRSQQRPRIQELGTLDASGSLGTCHGPERPHLNLWLEAPDLLLAEVDLPKLDGAQGLALEIGENRLVIGGPQQLYHLDATVPLRINSEASRAAFHRRRKQLMVSMPLLTASS

Variants of: B1
Conditions: with telo2_mouse Telo2, Q9DC40
Chain of telo2_mouse Telo2, Q9DC40 (Q9DC40 whole entry): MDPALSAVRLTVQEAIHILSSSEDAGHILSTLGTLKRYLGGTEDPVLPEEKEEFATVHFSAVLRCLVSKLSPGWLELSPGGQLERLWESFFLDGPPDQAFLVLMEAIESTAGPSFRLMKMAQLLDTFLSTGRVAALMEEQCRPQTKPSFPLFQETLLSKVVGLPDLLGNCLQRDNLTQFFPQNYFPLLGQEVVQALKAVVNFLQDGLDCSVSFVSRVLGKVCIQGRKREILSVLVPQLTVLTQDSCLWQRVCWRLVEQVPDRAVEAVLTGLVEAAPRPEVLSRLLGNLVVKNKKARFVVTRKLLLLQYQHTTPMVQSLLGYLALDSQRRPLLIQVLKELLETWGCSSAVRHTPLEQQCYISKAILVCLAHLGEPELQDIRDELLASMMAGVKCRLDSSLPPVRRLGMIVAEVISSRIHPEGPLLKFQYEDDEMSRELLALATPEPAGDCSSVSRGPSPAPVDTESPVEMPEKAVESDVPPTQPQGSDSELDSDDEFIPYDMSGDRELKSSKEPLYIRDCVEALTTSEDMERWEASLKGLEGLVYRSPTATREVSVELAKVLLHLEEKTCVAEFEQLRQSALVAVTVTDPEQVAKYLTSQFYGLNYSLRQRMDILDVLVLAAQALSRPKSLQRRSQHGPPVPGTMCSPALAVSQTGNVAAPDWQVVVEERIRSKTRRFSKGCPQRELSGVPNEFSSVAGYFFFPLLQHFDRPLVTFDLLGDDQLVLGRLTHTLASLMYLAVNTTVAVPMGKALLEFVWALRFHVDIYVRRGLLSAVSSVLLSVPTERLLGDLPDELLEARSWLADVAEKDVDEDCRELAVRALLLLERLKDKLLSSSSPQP

| effect of a mutation on the interaction | Variant |
| --- | --- |
| disrupting interaction strength | MADSTFLAPELSDTESMGEETVRFQELLLKASKELQQAQTARPDSTQIQPKPGFCVETNSSEGKVFINICHSPSIPPPADVTEDELLQMLEEDQAGFRIPMSLGEPHAELDAKGQGCTAYDVAVNSNFYLRMQNSDFLRELVVTIAREGLEDKYGLQLNPEWRMLKYRSFLGSISQQNIRSQQRPRIQELGTLDASGSLGTCHGPERPHLNLWLEAPDLLLAEVDLPKLDGAQGLALEIGENRLVIGGPQQLYHLDATVPLRINSEASRAAFHRRRKQLMVSMPLLTASS [K57E] |
| disrupting interaction strength | MADSTFLAPELSDTESMGEETVRFQELLLKASKELQQAQTARPDSTQIQPKPGFCVKTNSSEGEVFINICHSPSIPPPADVTEDELLQMLEEDQAGFRIPMSLGEPHAELDAKGQGCTAYDVAVNSNFYLRMQNSDFLRELVVTIAREGLEDKYGLQLNPEWRMLKYRSFLGSISQQNIRSQQRPRIQELGTLDASGSLGTCHGPERPHLNLWLEAPDLLLAEVDLPKLDGAQGLALEIGENRLVIGGPQQLYHLDATVPLRINSEASRAAFHRRRKQLMVSMPLLTASS [K64E] |
